Common to all, as to assay: SPR (Biacore 4000): CD3εγ variant captured from the periplasmic fraction on UCHT1v9; analyte a bispecific antibody with one 38E4v1 arm and one irrelevant arm, 0.39-100 nM
In general terms: SPR reads the build-up and loss of mass on a sensor chip optically.

One assay deals with T1, Q1A.
T1 construct: Residue number counts from the N-terminus of CD3ε; also called CD3εγ Q1A; CD3 mutant Q1A
T1 single chain CD3ε-26mer linker-CD3γ: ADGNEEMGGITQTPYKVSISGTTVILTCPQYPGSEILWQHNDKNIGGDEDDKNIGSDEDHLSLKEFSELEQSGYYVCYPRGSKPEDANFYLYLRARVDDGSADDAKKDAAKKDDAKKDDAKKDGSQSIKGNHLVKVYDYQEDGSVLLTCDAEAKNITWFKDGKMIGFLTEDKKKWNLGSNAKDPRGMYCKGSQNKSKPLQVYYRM
As to the method: (§1) The secreted CD3εγ variants were captured from the crude periplasmic fraction using anti-CD3 antibody UCHT1v9. UCHT1v9 was immobilized on a CM5 serios S chip through amine coupling using the anti-human IgG (Fc) antibody capture kit (BR-1008-39) from GE Healthcare. SPR measurements were performed on the Biacore 4000 instrument, utilizing kinetic evaluation software. In order to measure monovalent binding affinities, anti-CD3 bispecific antibodies were used in which one arm was the anti-CD3 to be tested and the arm recognized an irrelevant antigen. The bispecific anti-CD3 antibodies were passed over the captured supernatant in a concentration series of two-fold dilutions from 0.39 to 100 nM. The resulting kinetics (FIG. 13D) were measured and calculated using Biacore 4000 BIAevaluation software (product code 28-9664-57).

For another assay, the target named is T2, D2A.
T2 construct: Residue number counts from the N-terminus of CD3ε; also called CD3εγ D2A; CD3 mutant D2A
T2 single chain CD3ε-26mer linker-CD3γ: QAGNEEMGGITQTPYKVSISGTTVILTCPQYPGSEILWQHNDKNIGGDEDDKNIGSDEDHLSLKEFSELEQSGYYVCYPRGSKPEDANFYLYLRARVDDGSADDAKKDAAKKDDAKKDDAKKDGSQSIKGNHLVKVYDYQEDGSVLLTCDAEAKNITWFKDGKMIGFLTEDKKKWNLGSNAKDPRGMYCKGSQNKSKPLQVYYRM
As to the method: as §1

Another assay addresses T3, G3A.
T3 construct: Residue number counts from the N-terminus of CD3ε; also called CD3εγ G3A; CD3 mutant G3A
T3 single chain CD3ε-26mer linker-CD3γ: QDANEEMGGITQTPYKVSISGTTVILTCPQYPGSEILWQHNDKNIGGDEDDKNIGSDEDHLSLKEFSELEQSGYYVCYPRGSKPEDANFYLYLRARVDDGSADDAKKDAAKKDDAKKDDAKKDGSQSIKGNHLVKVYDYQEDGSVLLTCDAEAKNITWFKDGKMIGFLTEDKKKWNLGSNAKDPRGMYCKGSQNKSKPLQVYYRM
Here is the method:
as §1

The target of the next assay is T4, E5A.
T4 construct: Residue number counts from the N-terminus of CD3ε; also called CD3εγ E5A; CD3 mutant E5A
T4 single chain CD3ε-26mer linker-CD3γ: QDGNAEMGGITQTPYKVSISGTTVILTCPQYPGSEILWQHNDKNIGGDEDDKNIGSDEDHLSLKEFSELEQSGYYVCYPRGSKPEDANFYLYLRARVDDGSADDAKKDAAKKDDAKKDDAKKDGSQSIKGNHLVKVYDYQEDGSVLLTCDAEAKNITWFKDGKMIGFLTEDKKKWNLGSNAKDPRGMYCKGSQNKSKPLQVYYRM
As to the method:
as §1

The next assay concerns the target T5, E6A.
T5 construct: Residue number counts from the N-terminus of CD3ε; also called CD3εγ E6A; CD3 mutant E6A
T5 single chain CD3ε-26mer linker-CD3γ: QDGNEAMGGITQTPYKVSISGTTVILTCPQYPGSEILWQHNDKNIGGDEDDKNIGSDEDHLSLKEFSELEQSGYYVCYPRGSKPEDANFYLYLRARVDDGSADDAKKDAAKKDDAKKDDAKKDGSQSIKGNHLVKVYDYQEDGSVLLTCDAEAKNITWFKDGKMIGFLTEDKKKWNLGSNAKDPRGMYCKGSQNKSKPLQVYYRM
Here is the method:
as §1

Another assay deals with T6, M7A.
T6 construct: Residue number counts from the N-terminus of CD3ε; also called CD3εγ M7A
T6 single chain CD3ε-26mer linker-CD3γ: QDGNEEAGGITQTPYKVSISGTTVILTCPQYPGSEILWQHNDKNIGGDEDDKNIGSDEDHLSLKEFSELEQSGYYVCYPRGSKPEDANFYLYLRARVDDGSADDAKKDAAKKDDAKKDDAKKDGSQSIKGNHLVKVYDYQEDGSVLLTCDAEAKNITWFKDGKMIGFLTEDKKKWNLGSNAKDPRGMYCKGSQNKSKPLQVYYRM
Here is the method: as §1

Another assay addresses T7, G9A.
T7 construct: Residue number counts from the N-terminus of CD3ε; also called CD3εγ G9A
T7 single chain CD3ε-26mer linker-CD3γ: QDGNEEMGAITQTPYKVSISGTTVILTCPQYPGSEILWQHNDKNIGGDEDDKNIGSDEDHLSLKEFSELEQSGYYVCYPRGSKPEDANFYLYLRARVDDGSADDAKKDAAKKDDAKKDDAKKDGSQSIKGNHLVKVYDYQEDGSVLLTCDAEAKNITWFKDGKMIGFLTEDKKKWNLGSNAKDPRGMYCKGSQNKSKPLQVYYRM
Here is the method:
as §1

B1: hu38E4.v1 Fab (Fab, V domains shown)
VH: EVQLVQSGAEVKKPGASVKVSCKASGFTFTSYYIHWVRQAPGQGLEWIGWIYPENDNTKYNEKFKDRVTITADTSTSTAYLELSSLRSEDTAVYYCARDGYSRYYFDYWGQGTLVTVSS
VL: DIVMTQSPDSLAVSLGERATINCKSSQSLLNSRTRKNYLAWYQQKPGQSPKLLIYWTSTRKSGVPDRFSGSGSGTDFTLTISSLQAEDVAVYYCKQSFILRTFGQGTKVEIK
notes: Humanized anti-CD3 Fab; Point mutants of it were expressed as Fabs in HEK293 cells
What is called Kd is the constant that tells how readily two partners part at equilibrium. For the molecule B1, the Kd was found to be 1000 nM with Q1A; 1500 nM in the assay with D2A; 7 nM with G3A; 7 nM with E5A; 65 nM with E6A; 13 nM with M7A. The molecule also returned a dissociation constant Kd with G9A of 6 nM.

The values above are taken from patent US20200299408A1 (Genentech, published 2020).
